Reference: publication PMC4805542

System: ZF6-KRAB (synthetic construct)
Test: EMSA
Conditions: 2.5 uM protein, DNA titrated 130-200 nM; apparent Kd, Scatchard; 6.25 mM MgCl2; 25 mM Hepes pH 7.9, 50 mM KCl, 6.25 mM MgCl2, 1% Nonidet P-40, 5% glycerol; 15 min on ice; 5% PAGE in 0.5x TBE at 4 C

hRHO 65 bp duplex oligonucleotide
Kd: 108 nM
